# Reference: the nanobody polyreactivity screen of Harvey et al. (2022)
# Assay: yeast display, Sf9 membrane polyspecificity reagent, FACS + sequencing; frameworks hold sequencing errors
# How it was run: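 Synthetic nanobody libraries on Saccharomyces cerevisiae BJ5465 were galactose-induced for 36–48 hours, stained 1 hour at 4 °C with 10% biotinylated, detergent-solubilized Sf9 membrane reagent and enriched on streptavidin microbeads. FACS then separated cells into low and high (top ~1%) gates by anti-HA (expression) and streptavidin (reagent binding) fluorescence. Genes were colony-PCR amplified, MiSeq 2 × 250 sequenced and CDR-length filtered. A clone's polyreactivity label is that of its gate of origin.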
row,Sequence,polyreactivity (PSR sort gate)
1,QVQLVESGGGLVQAGGSLRLSCAASGLIFNLYAMGWYRQAPGKEREFVATITGIGGSTYYADSVKGRFTISRDNAKNTVYLQMNSLKPEDTAVYYCAADAWFLPYNDWGQGTQVTVSS,low polyreactivity
2,QVQLVESGGGLVQAGGSLRLSCAASGFIFVRYALGWYSQAPGKEMELVAAIRRGGGDSSYYADSVKGRFTISRDNAKNTVYLQMNSLKPEDTAVYYCAARPAIERDYWGQGTQVTVSS,high polyreactivity
3,QVQLVESGGGLVQAGGSLRLSCAASGSIFVSYAMGWYRQAPGKERELVAAITGRTGSTYYADSVKGRFTISRDNAKNTVYLQMNSLKPEDTAVYYCAARHKQHNRYDYWGHGTQVTVSS,low polyreactivity
4,QVQLVESGGGLVQAGGSLRLSCAASGFIFSGYAMGWYRQAPGKERELVAAISGGGSTYYADSVKGRFTSSRDNAKNTVYLQMNNLKPEETADYYCAARVYWSVRYYYWGQGTQVTVSS,high polyreactivity
5,QVQLVESGGGLVQAGGSLRLSCAASGRIFPHYTMGWYRQAPGKERELVATISGRGGSTYYADSVKGRFTISRDIAKNTVYLQMNSLKPEDTAVYYCAREGCRRYAGLYYWGQGTQVTVSS,high polyreactivity
6,QVQLEESGGGLVQPGGSLRLSCAASGIIFAYNAMGWNRQAPGKERELVATITDSGGTTSYADSVKGRFTISRDNAKNTVYLQMNRLKQEDTAVYYCAVLPVYWYWRNYVYLSGYDYWGQGTQVNVSS,low polyreactivity
7,QDQLVESGVGLVQAGGSHRLSCAASGSTFYRYAMRWYRQAHGKERELVATITTGGSSTYYADSVKGRFTISRDNAKNTVYLQMNSLKPEDTAVYYCAKVYTYSGVNLRRISTPYGYWGQGTQVTVSS,high polyreactivity
8,QVQLVESGGGLVQAGGSLRLSCAASGFSFPYAMGGYRQAPGKERELVAGISWSGGSTYYADSVKGRFTISRDNAKNTVYLQMNSLKPEDTAVYNCNKYVQSGGTYDYWGQGTQVTVSS,low polyreactivity
9,QVQLVESGGGLVQAGGSLRLSCAASGSTYRNAMGWYRQAPGKERELVAAITKSDSSTYYADSVKGRFTISRDNAKNTVYLQMYSLKPEDTAVYYCNVDRAWPPWPYDYWGQGTQVTVSS,low polyreactivity
10,QVQLVESVGGLVQAGGSLRLSCAASGRIFGFSTMGWYRQARGKDRELVATISWSGSGTYYADSVKGRFTISRDNAYNTVYLQMNRLKPEDTAVYYCNADWYYFGYDYWGQGTQVTVST,low polyreactivity
11,QVQLVESGGGLVQAGGSLRLSCAASGSIFNYYTMGWYRQAPGKERELVAAISWSGGSTYYADSVKGRFTISRDNAKNTVYLQMNSLKPEDTAVYYCAAVVRYSQAGYYYWGQGTQVTVSS,high polyreactivity
12,QVQLVESGGGLVQAGGSIRLSCAASGRIFKGYAMGSYRQAPGKERELVAAISSRGGITYYADSVKGRFTISRDNAKNSVYLEMNSLNPEDTAVYYCAAVYKWSRYGGYKYWGQGTQVTVSS,low polyreactivity
13,QVQLVESGGGLVKAGGSLRLSCAASGYTFRSYAMGWYRQAPGKEREKVARITFRGTSTYADSVKGRFTISRDNAKNTVYLQMNSLKPEESAVYYCNTSRAPWGNGYKRYDYWGQGTQVTVSS,low polyreactivity
14,QVQLVESGGGLVQAGGSLRLSCAASGSTFGPYAMGWYRQAPGKERELVAGITWSSASTYYADSVKGRFTISRDNAKNTVYLQMNSLKPEDTAVYYCIADSESTDYDYWGQGTQVTVSS,low polyreactivity
15,QVQLVESGGGLDQAGGSLRLSSAASGFTISWYDMGWYRQAPGKERELVAAITYTGGSTYYADSVKGRFTISRDNAKNTVYFQMNSLKPEDTAVYYCNADEPSSNMDYWGQGTQVTVSS,low polyreactivity
16,QVQLVESGGGLVQAGGSLSLSCAASGRTFGSYAMGWYRQAPGKERELVAAITGSGGSTYYADSVKGRFTISRDNAKNNVYLQMNSLKPEDTAVYYCRYLFGYIAMDYWGQGTQVTVSS,low polyreactivity
17,QDQLVESGGGLVQAGGRLRLSCAASGRTFYWNAMGWNRQAPGKEREMVAAITRGGSTTYADSVKGRFTISRDNAKNTVYLQMNSLKPEDTAVYYCNKVYSLWPGYRYDYWGQGTQVTVSS,high polyreactivity
18,QVQLVDSGGGLVQAGVSLRLSCAASGSTFVFYAMGWYRQAPGKERELVAGISWSGGSTYYADSVKGRFTISRDNAKNTVYLQMNSLKPEDTAVYYCAARYTRYLGSGYYYCGQGTQVTVSS,high polyreactivity
19,QVQLVESGVGLVQAGGSLRLSCAASGIIFDDYAMGWYRQAPGKERELVAGINESGDSTYYADSVKGRFTISRDNAKNTVYLQMNSLKPEDTAVYYCAAQLYYWWYDYWGQGTQVTVSS,high polyreactivity
20,QVQLVESGGGLVQAGGSLRLSCAASGRIFSYYAMGWYRQAPGKEREFVATITYAGGSTYYADSVKGRFTISRDNAKNTVYFQMNSLKPEDTAVYYCAARGYSYRGWRMDYWGQGTQVTVSS,high polyreactivity
21,QVQLVESGAGLVQAGGSLRLSCAASGFIFRGNTMGWYRQAPGKERELVASITRGGGRTYYADSVKGRFTISRDNAKNTVYLQMNSLKPEDTAVYYCAARTRSDNSYHGGEYWGQGTQVTVSS,high polyreactivity

row,Sequence,polyreactivity (PSR sort gate)
1,QVQLVESGGGLVQAGGSLRLSCAASGFTFGYYAMGWYRQAPGKERELVAAISSSGGSTYYADSVKGRFTISRDNAKNTVYLQMNSLKPEDTAVYYCAVVVFSRVYRYFTSDYWGQGTQVTVSS,high polyreactivity
2,QVQLVESGGGLVQAGGSLRLTCAASGSIFRVNAMGWYRQAPGKERELVAAISSGGSTHYADSVKGRFTMSRDNAKNTVYLLMNSLKPEDTAVYYCAVRGERRYIYDYWGQGTQVTVSS,high polyreactivity
3,QVQLVESGGCLVQAGGSLRLRGAASGRIFGYYAMGWYRQAPGKEWELVAAISRGGSTNYADSVKGRFTISRDNAKNTVYLQMNSLKPEDTAVYYCAAVQRTHPRYYYWGQGTQVTVSS,high polyreactivity
4,QVQLVESGGGLVQAGGSLRLSCAASGRIIRSYAMGRYRQAPRKERELVDAITTGGRTYYADSVKGRFTISRDNAKNTVYLQMNSLKPEDTAVYYCNSALVYRGTDTNDYWGQGTQVTVSS,high polyreactivity
5,QVQLVESGGGLVQAGGSLRLSCAASGRTFRFYAMGWYRQAPGKERELVAAITYGGGSTYYADSVKGRFTISRDNAKNTVYLQMNSLKPEDTAVYYCAARAGRVPSWSGRTRYYYGGQGTQVTVSS,high polyreactivity
6,QVQLVESGGGLVQAGGSLRLSCAASGRTLHDYTMGWYRQSPGKERELVAGITSGGRTNYADSVKGRFTISRDNAKNTVYLQMNSLKPEDTADYYCAAAWTWWRLYAVDYWGQGTQVTVSS,high polyreactivity
7,QVKLVESGGGLVQAGGSLRLSCAASGLTLQWYALGWYRQAHGKERDLVAAISYNGGDTYYADSVKGRFTISRDNAKNTVYLQMNSLKPEDTAVYYCAAYWYVGVNYSQRRDYWGQGTQVTVSS,low polyreactivity
8,QVQLVESGGGLVQAGGSLRLSCAASGRTFNSNAMGWYRQAPGKERELVAAISGSGGSTYYADSVKGRFTISRDNAKNTVYLQMNSLKPEDTAVYYCAAAARQWKKYDYWGQGTQVTVSS,high polyreactivity
9,QVQLVESGGGLVQAGGSLRLSCAASGRIFDHYAMGSYRQAPGKERELVAAISGGGDSTYYAYSVKGRFTISRDNAKNTVYLQMNSLKPEDTAVFYCAADFYVYWGNYAQDYYYWGQGTQVTVSS,high polyreactivity
10,QVQLVESGRGLVQAGGSLRLSCAASGSIFTPNVMGWYIQAPGKERELVAAISQSGGSTFYADSVKGRFTISRDNAKNTVYLQLNSLKPEDTAVYYCATEYDGPVYDLDYDYWGQGTLVTVSS,low polyreactivity
11,QVQLVESGGGLVQAGGSLRLSCAASGRIFVKYAMGWYRQAPGKERELVAGISRSVGSTYYADSVKGRFTISRDNAKNTVYLQMNSLKPEDTAVYYCATRQKRVGYYYWGQGTQVTVSS,high polyreactivity
12,QVQHVESGGGLVQAGCSLRLSCAASGSIFWRYAMGWSRQAHGKEREFVAAISGSGVRTSYADSVKGRFTISRDNAKNTVYLQMNSLIPEDTAVYYCAARVSYRYTSAAYEYWGQGTQVTVSS,high polyreactivity
13,QVQLVESGGGLVQAGGSLRLSCAASGGTIRYYAMGWYSQAPWKERELVAAISVGGGRTYYADSVKGRFTISRDNAKNTVYLQMNSLKPEDTAVYYCAADYASWSNWGYEYWGQGTQVTVSS,high polyreactivity
14,QVQLQESGGGMVQAGGCLRLSCAASVTIFDPDYMGWYHQAPGKERELVASISLGRITYYADSVKGRFTINRDNAKNTVFLQMISLKPEDTAVYYCAAVTGLFYHPFYKYNYWGQGTQVTVSS,high polyreactivity
15,QVQLVESGGGLVQAGASLRLSCAASGSTLWYYAMGWYRQAPGKERELVADITSSGNTNYADSVKGRFTISRDNAKNTVYLQMNSLKPEDTAVYYCAADSANYQWYLSWQKDDYWGQGTKVTVSS,low polyreactivity
16,QVQLVESGGGLVQAGGSLRLSCAASGFTLHVYAMGWYRQAPGKERELVAAISTGGNTNYADSVKGRFTISRDNAKNTVYLQMNSLKAEDTAVYYCNARYTSRRSRRPYYEWGQGTQVTVSS,high polyreactivity
17,QVQLQESGGGLVQAGGCLSCTASGTIFGQGDMGWYRQAPGKERELVATINVGASTYYADSVKGRFTISRDKAKNTVYLQKNSLKPDDTAVYYCAVFTDITTYFGYWGQGTQVTVSS,low polyreactivity
18,QVQLVESGGGLVQAGGSLRLSCAASGSTFGRYAMGWYRQAPGKERELVAAITSDTGHTNYADSVKGRFTISRDNAKNTVYLQMNSLKPEDTAVYYCAAANFWVLWGHVIGNYDSWGQGTQVTVSS,low polyreactivity
19,QVQLVESGGGLVQAGGSLRLSCAASGRTFYPYAMGWYRQAPGKERELVAAINWRDGSTYYADSVKGRFTISRDNAKNTVYLQMNSLKPEDTAVYYCAADYYWWQYDYWGQGTQVTVSS,high polyreactivity
20,QVQLVESGGGLVQAGGSLRLSCAASGNTFYFYAMGWYRQAPGKERELVAAIRWSGSRTYADSVKGRFTISRDNAKNTVYLQMNSLKPEDTAVYYCNADSIWGYDYWGQGTQVTVSS,high polyreactivity
